From PMC8360118 (Genes to Cells, 2021) come the findings set out here.

The experiment concerns the target T1, soluble form of bovine POMGNT2 (sPOMGNT2, residues 45–580) (bovine, UniProt Q5NDF2 45-580).
T1 sequence (looked up): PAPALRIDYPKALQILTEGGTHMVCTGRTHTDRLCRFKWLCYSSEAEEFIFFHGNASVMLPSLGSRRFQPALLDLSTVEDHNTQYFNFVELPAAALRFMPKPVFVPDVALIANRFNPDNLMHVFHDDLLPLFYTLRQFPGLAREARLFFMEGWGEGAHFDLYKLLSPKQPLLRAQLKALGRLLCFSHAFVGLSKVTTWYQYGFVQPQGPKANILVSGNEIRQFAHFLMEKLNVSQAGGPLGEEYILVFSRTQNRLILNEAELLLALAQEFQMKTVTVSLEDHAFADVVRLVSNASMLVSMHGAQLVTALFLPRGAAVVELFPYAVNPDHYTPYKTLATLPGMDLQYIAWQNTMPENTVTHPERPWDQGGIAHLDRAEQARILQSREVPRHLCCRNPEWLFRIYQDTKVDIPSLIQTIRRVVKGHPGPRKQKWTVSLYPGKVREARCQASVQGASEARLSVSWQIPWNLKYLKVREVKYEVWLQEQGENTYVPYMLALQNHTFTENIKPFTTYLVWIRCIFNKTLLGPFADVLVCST
Briefly: crystal structure.

* marks the point of attachment. αMan = OC[C@H]1O[C@H](*)[C@@H](O)[C@@H](O)[C@@H]1O

B1: 379Man short peptide (peptide)
peptide: Ac-QT(αMan)PTLGPIQPTR-NH2
SMILES: CC[C@H](C)[C@H](NC(=O)[C@@H]1CCCN1C(=O)CNC(=O)[C@H](CC(C)C)NC(=O)[C@@H](NC(=O)[C@@H]1CCCN1C(=O)[C@@H](NC(=O)[C@H](CCC(N)=O)NC(C)=O)[C@@H](C)O[C@H]1O[C@H](CO)[C@@H](O)[C@H](O)[C@@H]1O)[C@@H](C)O)C(=O)N[C@@H](CCC(N)=O)C(=O)N1CCC[C@H]1C(=O)N[C@H](C(=O)N[C@@H](CCCNC(=N)N)C(N)=O)[C@@H](C)O
As to B1, the binding result was “binds”.

B2: 379Man long peptide (peptide)
peptide: Ac-TIRTRGAIIQT(αMan)PTLGPIQPTR-NH2
SMILES: CC[C@H](C)[C@H](NC(=O)[C@H](C)NC(=O)CNC(=O)[C@H](CCCNC(=N)N)NC(=O)[C@@H](NC(=O)[C@H](CCCNC(=N)N)NC(=O)[C@@H](NC(=O)[C@@H](NC(C)=O)[C@@H](C)O)[C@@H](C)CC)[C@@H](C)O)C(=O)N[C@H](C(=O)N[C@@H](CCC(N)=O)C(=O)N[C@H](C(=O)N1CCC[C@H]1C(=O)N[C@H](C(=O)N[C@@H](CC(C)C)C(=O)NCC(=O)N1CCC[C@H]1C(=O)N[C@H](C(=O)N[C@@H](CCC(N)=O)C(=O)N1CCC[C@H]1C(=O)N[C@H](C(=O)N[C@@H](CCCNC(=N)N)C(N)=O)[C@@H](C)O)[C@@H](C)CC)[C@@H](C)O)[C@@H](C)O[C@H]1O[C@H](CO)[C@@H](O)[C@H](O)[C@@H]1O)[C@@H](C)CC
As for B2, the binding result is reported as “binds”.
